Data published in article PMC6181354, “Domain architecture of BAF250a reveals the ARID and ARM-repeat domains with implication in function and assembly of the BAF remodeling complex”.

What was measured:
[1] = target: BAF250a ARID WT (UniProt O14497 968-1143); experiment: ITC; 25 C; dH 1.51 kcal/mol; n 1.03; ITC: 50 mM NaH2PO4 pH 6, 0.025 mM EDTA, 25 C; 20 uM DNA in cell titrated with 200 uM protein; conditions: protein: recombinant; tags: N-terminal 6xHis (pET28a); blunt; self-complementary palindrome, 2 copies; snap cooled on ice after heating
Sequence of BAF250a ARID WT (O14497 968-1143): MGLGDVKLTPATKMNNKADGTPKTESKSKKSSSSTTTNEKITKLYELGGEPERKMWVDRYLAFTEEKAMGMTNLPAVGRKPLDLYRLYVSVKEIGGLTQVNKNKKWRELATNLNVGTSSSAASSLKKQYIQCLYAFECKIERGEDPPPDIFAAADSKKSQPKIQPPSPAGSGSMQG

[2] = target: BAF250a ARID V1067G (UniProt O14497 968-1143, V1067G); experiment: ITC; 25 C; dH -0.69 kcal/mol; n 1.04; ITC: 50 mM NaH2PO4 pH 6, 0.025 mM EDTA, 25 C; 20 uM DNA in cell titrated with 200 uM protein; conditions: protein: recombinant; tags: N-terminal 6xHis (pET28a); blunt; self-complementary palindrome, 2 copies; snap cooled on ice after heating
Sequence of BAF250a ARID V1067G (O14497 968-1143 V1067G): as the sequence (O14497 968-1143) above, with V100G counted along it

B1: DD12 dsDNA (Dickerson dodecamer) (dsDNA)
DNA 1: CGCGAATTCGCG
DNA 2: CGCGAATTCGCG
Kd [1]: 71.9 ± 37.7 nM | Kd [2]: 694 ± 331 nM
